These results are taken from publication PMC9952701.

The target of this assay is insulin-like growth factor receptor type 1 (IGF1R) (mouse (endogenous in HEI-OC1)) (UniProt Q60751).
Sequence of UniProt Q60751 (Q60751 31-1373): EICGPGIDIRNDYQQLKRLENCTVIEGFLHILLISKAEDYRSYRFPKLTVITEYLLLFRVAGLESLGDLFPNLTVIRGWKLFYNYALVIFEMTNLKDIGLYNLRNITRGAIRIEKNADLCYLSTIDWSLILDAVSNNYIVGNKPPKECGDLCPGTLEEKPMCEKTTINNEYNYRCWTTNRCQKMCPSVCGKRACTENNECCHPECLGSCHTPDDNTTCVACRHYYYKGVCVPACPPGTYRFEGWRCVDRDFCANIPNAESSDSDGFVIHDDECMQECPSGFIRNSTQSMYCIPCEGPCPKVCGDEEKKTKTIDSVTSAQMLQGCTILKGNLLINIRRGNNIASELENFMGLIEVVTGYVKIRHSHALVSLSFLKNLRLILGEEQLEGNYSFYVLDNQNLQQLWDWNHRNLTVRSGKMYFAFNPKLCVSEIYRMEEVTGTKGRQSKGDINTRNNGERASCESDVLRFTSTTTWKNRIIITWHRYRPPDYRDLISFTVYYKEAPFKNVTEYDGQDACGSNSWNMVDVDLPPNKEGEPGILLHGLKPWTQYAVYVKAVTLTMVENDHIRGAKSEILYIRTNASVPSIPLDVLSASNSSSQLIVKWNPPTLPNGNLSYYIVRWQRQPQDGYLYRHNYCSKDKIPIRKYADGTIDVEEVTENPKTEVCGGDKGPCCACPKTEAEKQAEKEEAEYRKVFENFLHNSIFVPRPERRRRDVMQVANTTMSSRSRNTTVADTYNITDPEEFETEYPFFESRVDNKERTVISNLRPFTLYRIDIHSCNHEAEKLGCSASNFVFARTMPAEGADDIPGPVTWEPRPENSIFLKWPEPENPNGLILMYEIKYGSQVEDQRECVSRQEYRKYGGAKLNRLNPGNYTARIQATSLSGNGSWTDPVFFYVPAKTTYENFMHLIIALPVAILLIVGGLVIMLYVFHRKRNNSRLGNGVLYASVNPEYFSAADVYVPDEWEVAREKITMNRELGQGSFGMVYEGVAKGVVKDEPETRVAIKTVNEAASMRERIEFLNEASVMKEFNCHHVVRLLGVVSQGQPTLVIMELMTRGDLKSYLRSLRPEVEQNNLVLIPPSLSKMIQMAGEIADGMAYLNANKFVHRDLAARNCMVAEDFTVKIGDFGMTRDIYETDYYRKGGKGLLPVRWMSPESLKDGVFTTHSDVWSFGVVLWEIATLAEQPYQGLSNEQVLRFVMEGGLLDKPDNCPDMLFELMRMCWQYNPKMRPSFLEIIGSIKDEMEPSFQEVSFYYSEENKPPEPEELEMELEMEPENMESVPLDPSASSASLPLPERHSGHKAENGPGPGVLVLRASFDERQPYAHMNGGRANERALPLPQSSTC

“human recombinant IGF-1 (insulin-like growth factor 1) (from UniProt P05019 49-118) (ligand)” came in with a p-IGF1Rβ (Tyr1135) level by Western blot in HEI-OC1 progenitor cells treated with IGF-1 (10 nM), sustained for 30 min, versus untreated control of 11 fold and a p-IGF1Rβ (Tyr1135) level by Western blot in differentiated HEI-OC1 cells treated with IGF-1 (10 nM) for 5 min, versus untreated control of 3.5 fold.
